Reference: article PMC12333492, “Co-enzyme-free, enzymatic synthesis of aldehydes from renewable resources with a new and highly efficient alkene cleaving dioxygenase” (Green Chemistry, 2025)

Legend:
MapADO = target: T1, MapADO (Moesziomyces aphidis, UniProt W3VHW6); assay: continuous UV-Vis initial rate of vanillin formation ([…] nm); format: biochemical; conditions: O2 co-substrate; 10 mM potassium phosphate pH 7.4, 30 °C, 2% EtOH; initial-rate value taken (endpoint HPLC fit also printed in the 2nd table, row 3)
T1 construct: gene PaG_05861; codon-optimized, pET-28a, His6 tag, E. coli BL21 (DE3), IMAC purified, FeCl2 supplemented

PAD = target: T2, PAD (Heyndrickxia coagulans, UniProt A0A0C5C6Z1); assay: whole-cell decarboxylation to 4-vinylguaiacol, HPLC; format: cell-based; conditions: co-expressed with MapADO; 200 mM phosphate pH 7.4, 30 °C
T2 construct: gene SB48_HM08orf00536; co-expressed with MapADO on one pET28 vector, E. coli BL21 (DE3) resting cells
T2 sequence (A0A0C5C6Z1 1-167): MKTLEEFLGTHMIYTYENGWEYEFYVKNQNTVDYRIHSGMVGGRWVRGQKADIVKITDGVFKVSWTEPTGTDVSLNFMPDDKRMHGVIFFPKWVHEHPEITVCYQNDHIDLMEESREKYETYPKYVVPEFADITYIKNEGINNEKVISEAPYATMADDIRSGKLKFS

endpoint HPLC-UV [1] = substrate: Oc1ccc(/C=C/c2cc(O)cc(O)c2)cc1; assay: endpoint HPLC-UV; format: biochemical, Moesziomyces aphidis; conditions: O2 co-substrate, 10 mM potassium phosphate pH 7.4, 30 °C, 2% EtOH, endpoint measurement (authors: endpoint overestimates kcat and KM)
Description: (§1) endpoint HPLC-UV on MapADO

endpoint HPLC-UV [2] = substrate: C=Cc1ccc(O)c(OC)c1; assay: endpoint HPLC-UV; format: biochemical, Moesziomyces aphidis; conditions: O2 co-substrate, 10 mM potassium phosphate pH 7.4, 30 °C, 2% EtOH, endpoint measurement (authors: endpoint overestimates kcat and KM)
Description: as §1

[3] = substrate: COc1cc(/C=C/CO)ccc1O; assay: UV-Vis spectrophotometric initial rate; format: biochemical, Moesziomyces aphidis; conditions: O2 co-substrate, 10 mM potassium phosphate pH 7.4, 30 °C, 2% EtOH
Description: UV-Vis spectrophotometric initial rate on MapADO

## CC=Cc1ccc(O)c(OC)c1 [1b, isoeugenol]
MapADO
  Km: 118 ± 13 µM

## COc1cc(/C=C/C(=O)O)ccc1O [2a, ferulic acid]
PAD
  whole-cell decarboxylation to 4-vinylguaiacol, HPLC: The decarboxylation was effective and resulted in the rapid accumulation of 2b

B1: MapADO (Moesziomyces aphidis) (protein)
chain: MAPTATQEPVPVPVTSKAAPSHGYVHPTDILPSGWPTATDLSGGAQPRRFEGTIFDVMTRGTIPKELHGTFYRIMPDYAQPPTYYKGGELNAPIDGDGTVAAFRFKDGKVDYRQRFVETDRFKVERRARKSMYGLYRNPYTHHPCVRQTVESTANTNVVMHAGRFLAMKENGNAYEMDPHTLKTLGYNPFNLPSKTMTAHPKQCSVTGNLVGFGYEAKGLATKDVYYFEVDPSGKVVRDLWLEAPWCAFIHDCALTPNYLVLMLWPFEANLERMKAGGHHWAYDYTKPITWITIPRGAKSKDEVKYWHWKNGMPIHTASGFEDEQGRIIIDSSLVHGNAFPFFPPDSDEQKKKQEADGTPKAQFVRWTIDPRKDNNEQLPDPEVILDTPSEFPQIDNRFMGVEYSSAFINVFVPDRSDGNKNVFQGLNGLAHYKRKEGTTEWYYAGDNCLIQEPVFSPRSKDAPEGDGFVLAIVDRLDLNRSEVVVIDTRDFTKAVAAVQLPFAIRSGIHGQWIPGEVTPDFETKGLVDLPKEEHWAPLSQSPYDPDA
notes: codon-optimized, pET-28a, His6 tag, E. coli BL21 (DE3), IMAC purified, FeCl2 supplemented
Endpoint HPLC-UV [1]
  Km: 49 ± 9 µM
  kcat: 3.2 ± 0.1 s⁻¹
Endpoint HPLC-UV [2]
  Km: 220 ± 46 µM
  kcat: 361 ± 12 s⁻¹
[3]
  Km: 445 ± 125 µM
  kcat: 90 ± 8 s⁻¹
